Experimental data as given in publication PMC2151650.

Molecular target: triadin (rabbit) (UniProt Q28820)
Assay: co-IP

Chain of triadin (rabbit) (Q28820 whole entry): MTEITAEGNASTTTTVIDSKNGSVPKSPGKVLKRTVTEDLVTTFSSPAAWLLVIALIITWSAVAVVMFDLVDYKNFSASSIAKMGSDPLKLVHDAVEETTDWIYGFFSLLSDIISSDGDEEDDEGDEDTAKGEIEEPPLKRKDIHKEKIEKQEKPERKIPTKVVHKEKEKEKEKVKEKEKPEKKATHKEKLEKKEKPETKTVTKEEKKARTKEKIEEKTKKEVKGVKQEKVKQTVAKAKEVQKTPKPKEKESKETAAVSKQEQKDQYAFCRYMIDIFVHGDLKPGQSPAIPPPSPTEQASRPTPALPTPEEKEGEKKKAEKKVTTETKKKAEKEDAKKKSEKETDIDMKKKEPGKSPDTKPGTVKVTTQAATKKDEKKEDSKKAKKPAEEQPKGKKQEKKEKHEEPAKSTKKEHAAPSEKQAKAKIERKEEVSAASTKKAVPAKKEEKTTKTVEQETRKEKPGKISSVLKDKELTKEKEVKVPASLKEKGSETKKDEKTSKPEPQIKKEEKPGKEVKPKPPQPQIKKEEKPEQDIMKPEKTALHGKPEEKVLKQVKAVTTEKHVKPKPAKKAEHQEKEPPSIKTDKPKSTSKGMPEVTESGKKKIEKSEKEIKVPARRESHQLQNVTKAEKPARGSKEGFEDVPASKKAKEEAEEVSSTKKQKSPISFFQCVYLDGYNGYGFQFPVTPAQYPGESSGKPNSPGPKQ

percent reduction in triadin binding against WT RyR1: 50%
Substance: RyR1 D4878A/D4907A, P11716 1-5037 (natural protein)
